The test deals with CTD-HAP40 complex bearing a C-terminal biotin tag (UniProt P23610). Briefly: BLI. In general terms: Biolayer interferometry detects binding as a change in optical thickness at a sensor tip.

Kd data for one substance are collected here from publication doi:10.1101/2022.11.21.516512.

pKd: −log10 of the molar value.

UniProt P23610, sequence (P23610 whole entry, looked up, one chain of several): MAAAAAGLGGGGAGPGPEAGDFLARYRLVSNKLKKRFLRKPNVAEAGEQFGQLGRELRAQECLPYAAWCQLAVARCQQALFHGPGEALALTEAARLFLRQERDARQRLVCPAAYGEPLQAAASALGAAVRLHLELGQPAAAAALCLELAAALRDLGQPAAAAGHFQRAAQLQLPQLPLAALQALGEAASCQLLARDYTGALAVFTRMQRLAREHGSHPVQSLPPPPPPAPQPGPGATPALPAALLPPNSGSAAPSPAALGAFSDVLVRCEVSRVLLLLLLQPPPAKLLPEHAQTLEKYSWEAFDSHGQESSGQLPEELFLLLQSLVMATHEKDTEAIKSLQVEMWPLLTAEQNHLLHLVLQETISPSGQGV

As usually defined, the pKd is −log10 of the Kd, conventionally taken in molar units. A lower pKd goes with a large Kd. Turning to “HTT N-terminal HEAT and bridge domain construct (NTD, aa. 97-2069) (domain or fragment)”, the negative-log Kd (pKd) was 8.00.
